Laboratory results taken from patent publication US6723699B1, “Treating disorders by application of insulin-like growth factors and analogs” (Cephalon, Inc., priority 1989, dated 2004).

Tests used:
[1] = system: brain ornithine decarboxylase; experiment: Induction of brain ornithine decarboxylase after intracerebral injection, 4 day old rats; assay type: in vivo, rat; conditions: 6 hours
Description: The in vivo activity of IGF-I, IGF-II or synthetic peptide derivatives of these molecules was tested using a biochemical marker for CNS neurotrophic activity, the induction of brain ornithine decarboxylase. The induction (i.e. increased activity) of ornithine decarboxylase has been reported to be a general marker for the actions of a variety of trophic factors. (Schwartz et al., Dev. Brain Res. 1:403-413 (1981); Kanje et al., Brain Res. 381:24-28 (1986); Russell et al., Life Sci. 19:1297-1306 (1976); MacDonnell et al. Proc. Natl. Acad. Sci. USA 74, 4681-4684 (1977); […] et al. Proc. Natl. Acad. Sci. USA 82, 4365-4368 (1985)). Sprague-Dawley rats, 4 days old, were injected intracerebrally (in the area of the lateral ventricle) with 5 μl of 0.1 M phosphate-buffered saline (PBS) containing IGF-I, IGF-II or a synthetic peptide derivative (1.25-2.5 μg dose, with 6 animals per treatment group). After 6 hours, the brains were removed, and ornithine decarboxylase was assayed essentially as described by Lewis et al., Proc. Natl. Acad. Sci. USA 75:1021-1023 (1978).

septal cultures = experiment: Number of AChE positive cells in rat septal cultures; assay type: cell-based; conditions: 100 nM IGF-I; 4×10^5 cells/cm^2, medium with 10% bovine calf serum
Description: Dissociated cell cultures of the septal region of day 17 embryonic rats were prepared by standard techniques known to those skilled in the art, using enzymatic (Dispase, Collaborative Research) dissociation of tissue. Cells were seeded (plated) at 6×10^5 cells/cm^2 in poly-1-ornithine-laminin coated plastic tissue culture wells, and cultured in serum-free N2 medium (Bottenstein et al., 1978) for 5 days without feeding. Control (uninduced) cultures received no added growth factors; induced cultures received the concentrations of IGF-I and NGF indicated in FIGS. 9 and 10 at the time of plating. NGF is commercially available. ChAT was assayed by the method described in McManaman, et al. Dev. Biol. 125:311-320 (1988). AChE staining was performed according to the method of Hartikka and Hefti, J. Neuroscience 8:2967-2985 (1988).
We have shown that under specific culture conditions (4×10^5 cells/cm^2 in the presence of medium containing 10% bovine calf serum), IGF-I increased the number of AChE positive cells by 3-4 fold over control, growth factor-free cultures, FIG. 12.

[2] = system: brain ornithine decarboxylase; experiment: Induction of brain ornithine decarboxylase after intraventricular injection, adult rats; assay type: in vivo, rat; conditions: 6 hours, cerebral cortex, medial septum, hippocampus
Description: To determine whether the induction of brain ornithine decarboxylase by IGF-I was limited to developing animals, IGF-I was also injected intraventricularly into the lateral ventricles of adult Sprague-Dawley rats. After 6 hours, the brains were removed, dissected into several regions (cerebral cortex, medial septum, and hippocampus), and then assayed for ornithine decarboxylase activity as described in Example 4.

IGF-I receptor = biological target: T1, IGF-I receptor (Rattus norvegicus, UniProt P24062); experiment: 125I-[Threonine59]IGF-I displacement (IGF-I receptor competition) assay, rat brain homogenate; assay type: binding
T1 construct: Brain tissue containing the cerebral cortex and cerebellum was dissected from adult Sprague-Dawley rats; from tissue; host or cells: adult Sprague-Dawley rat brain (cerebral cortex and cerebellum), homogenate pellet
T1 sequence (P24062 31-737 limits assumed): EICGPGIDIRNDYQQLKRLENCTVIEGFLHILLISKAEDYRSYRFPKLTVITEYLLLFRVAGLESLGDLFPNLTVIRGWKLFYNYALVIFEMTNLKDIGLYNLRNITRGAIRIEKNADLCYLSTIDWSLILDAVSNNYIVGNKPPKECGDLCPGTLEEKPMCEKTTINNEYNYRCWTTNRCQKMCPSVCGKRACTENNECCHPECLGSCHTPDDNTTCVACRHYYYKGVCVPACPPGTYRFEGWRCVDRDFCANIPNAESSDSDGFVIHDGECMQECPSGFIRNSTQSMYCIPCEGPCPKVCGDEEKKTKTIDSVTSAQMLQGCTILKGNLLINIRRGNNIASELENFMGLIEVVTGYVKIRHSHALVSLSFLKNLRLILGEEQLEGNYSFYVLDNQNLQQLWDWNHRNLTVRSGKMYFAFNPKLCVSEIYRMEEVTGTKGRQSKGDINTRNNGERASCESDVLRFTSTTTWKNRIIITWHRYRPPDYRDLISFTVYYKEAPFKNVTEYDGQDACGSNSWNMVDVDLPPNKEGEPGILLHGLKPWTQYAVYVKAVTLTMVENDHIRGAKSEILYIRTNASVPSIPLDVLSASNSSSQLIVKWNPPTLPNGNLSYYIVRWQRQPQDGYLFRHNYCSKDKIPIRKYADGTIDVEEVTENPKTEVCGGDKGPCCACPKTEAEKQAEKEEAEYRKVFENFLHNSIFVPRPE
T1 sequence (P24062 742-1370 partner limits assumed): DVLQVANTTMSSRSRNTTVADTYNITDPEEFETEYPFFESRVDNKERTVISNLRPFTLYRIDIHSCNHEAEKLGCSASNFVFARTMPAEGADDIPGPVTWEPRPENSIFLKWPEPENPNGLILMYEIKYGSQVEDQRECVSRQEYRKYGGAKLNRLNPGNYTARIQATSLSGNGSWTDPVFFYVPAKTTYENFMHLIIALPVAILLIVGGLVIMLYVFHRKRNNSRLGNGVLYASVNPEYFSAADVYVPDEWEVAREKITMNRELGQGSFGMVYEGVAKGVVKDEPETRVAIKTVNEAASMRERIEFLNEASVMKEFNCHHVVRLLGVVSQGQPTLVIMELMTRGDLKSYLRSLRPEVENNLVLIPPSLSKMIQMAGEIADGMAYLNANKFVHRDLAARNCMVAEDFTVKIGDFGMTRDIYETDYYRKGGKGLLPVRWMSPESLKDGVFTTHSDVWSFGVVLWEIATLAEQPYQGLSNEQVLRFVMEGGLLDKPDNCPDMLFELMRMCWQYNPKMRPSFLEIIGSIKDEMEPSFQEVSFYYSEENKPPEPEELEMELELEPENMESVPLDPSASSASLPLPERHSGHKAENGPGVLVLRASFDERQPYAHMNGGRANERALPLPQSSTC
Description: Brain tissue containing the cerebral cortex and cerebellum was dissected from adult Sprague-Dawley rats (Hilltop Lab Animals, Inc. Scottsdale, Pa.) and homogenized at low power for 5 minutes in a Brinkmann Polytron homogenizer (Westbury, N.Y.) containing 50 volumes of ice-cold buffer consisting of 10 mM HEPES, 0.5% BSA, 0.0125% NEM, 0.025% bacitracin, and 100 KIU/ml aprotinin, pH 7.6 (Bohannon et al., Endocrinology 119:943-945 (1986). Following homogenization, the tissue was collected after centrifugation at 7800×g for 20 minutes and resuspended in 10 volumes of assay buffer. Tissue (50 μl), 100 μl ^125I-[Threonine^59]IGF-I (20 pM), and 50 μl of buffer or peptides of varying concentration were added to 96-well plates and incubated on ice for 3 hours. After the incubation period, the tissue was collected on Whatman GF/C filters that had been pre-soaked in 0.01% polyethylenimine and washed four times with ice-cold assay buffer using a Brandel cell harvester (Gaithersburg, Md.). The filters were removed and the bound ^125I-[Threonine 59]IGF-I was measured using a Beckman Model 5500B Gamma Counter.

[3] = system: 125I-[Threonine59]IGF-I binding to brain tissue sections; experiment: 125I-[Threonine59]IGF-I binding displacement on rat brain tissue sections
Description: Brains were removed intact from adult Sprague-Dawley rats, frozen on powdered dry ice, and cut into 20 μm sections (at the level of the cerebellum and brain stem) which were
thaw-mounted onto gelatin-coated glass microscope slides (Herkenham and Pert, J. Neurosci. 2:1129-1149 (1982)). Using a modification of the method of Bohannon et al. (1986), the tissue sections were covered with 250 μl of HEPES assay buffer (see Example 1) containing 0.01 nM ^125I-[Threonine^59]IGF-I alone or in combination with unlabeled IGF-I, IGF-II, or synthetic peptide fragments thereof. The sections were incubated at 4° C. for 24 hours and then rinsed in three 1-minute changes (200 ml each) of ice-cold HEPES assay buffer. The tissue sections were then wiped off the slides with filter paper, and the tissue-bound radioactivity was measured in a Beckman Model 5500B Gamma Counter.

[4] = system: cultured rat cortical cells; experiment: [3H]-leucine incorporation in cultured rat cortical cells; assay type: cell-based; conditions: low density 24 hour mixed cortical cultures
Description: The ability of IGF-I and a synthetic derivative of IGF-II (IGF-II(54-67)) to increase the incorporation of [^3H]-leucine and to promote the survival of neurite bearing cells was examined in cultured rat cortical cells (the numbers “54-67” in IGF-II indicate the fragment includes amino acid residues 54-67 of native IGF-II).
Measurements were performed, using standard techniques known to those skilled in the art, on dissociated cortical cells obtained from day 18-19 embryonic rats. Cells were seeded at 1.5×10^4/cm^2 on poly-1-ornithine-laminin coated plastic tissue culture cells in serum-free N2 medium (Bottenstein et al. Proc. Natl. Acad. Sci. U.S.A. 76: 514-517 (1978)). [^3H]-leucine was added to cells at plating for the incorporation assay. Cultures were terminated 24 hours after plating and measured for either [^3H]-leucine incorporation or for the number of neuritic cells by microscopic examination.

## GPETLCGAELVDALQFVCGDRGFYFNKPTGYGSSS-RRAPQTGIVDECCFRSCDLRRLEMYCAPLKPAKSA [IGF-I]
[1]
  brain ornithine decarboxylase activity (in words): dose-dependent increase in brain ornithine decarboxylase activity
Septal cultures
  increase in number of AChE positive cells over control: 3-4 fold
[2]
  ornithine decarboxylase activity (in words): stimulated ornithine decarboxylase activity in all brain regions assayed
IGF-I receptor; peptide 10 pM, 20 pM 125I-[Thr59]IGF-I
  PERCENT MAX. BOUND: 100%
IGF-I receptor; peptide 40 nM
  PERCENT MAX. BOUND: 9.6%
IGF-I receptor; rat brain homogenate
  displacement of 125I-[Threonine59]IGF-I (in words): potent displacers
[3]; peptide 4 pM, 0.01 nM 125I-[Thr59]IGF-I
  PERCENT MAX. BOUND: 91%
[3]; peptide 400 pM
  PERCENT MAX. BOUND: 30%
[3]; rat brain sections
  displacement of 125I-[Threonine59]IGF-I binding (in words): potently displaced
[4]
  [3H]-leucine incorporation (in words): increased [^3H]-leucine incorporation
